Holding throughout (settings): both partners purified
The target of experiment [1] is T1, RSV N-RNA complex (full-length N protein in ring-shaped complexes with bacterial RNA) (human respiratory syncytial virus, UniProt P03418 1-391).
T1 construct: human RSV nucleoprotein N, full length; concentrations are of N protomer; also called N-RNA rings; source: in lysate for the co-purification; purified (glutathione-Sepharose, thrombin, Superdex 200) as N-RNA complex; copies: 10-11
T1 sequence (looked up): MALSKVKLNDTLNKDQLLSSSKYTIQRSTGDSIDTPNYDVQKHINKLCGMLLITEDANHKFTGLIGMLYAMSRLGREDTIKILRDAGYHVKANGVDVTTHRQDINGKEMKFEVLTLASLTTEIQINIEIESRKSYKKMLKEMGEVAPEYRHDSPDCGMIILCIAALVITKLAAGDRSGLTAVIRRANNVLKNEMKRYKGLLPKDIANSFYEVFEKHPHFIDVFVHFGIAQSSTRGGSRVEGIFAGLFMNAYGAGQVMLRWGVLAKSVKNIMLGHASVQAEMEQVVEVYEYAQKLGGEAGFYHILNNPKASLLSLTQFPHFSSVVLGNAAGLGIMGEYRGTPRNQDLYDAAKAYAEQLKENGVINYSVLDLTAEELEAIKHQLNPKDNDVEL
In words: fluorescence polarisation; 200 nM FTU-labelled Fn peptide, N-RNA varied (up to 40 µM N); 20 mM Tris pH 8.0 without salt, 0.01% Brij-35; 20 °C; 30 min incubation; single site model, or with a linear contribution where marked (*).

Experiment [2] concerns the target T1, RSV N-RNA complex (full-length N …). The experiment in a line: fluorescence polarisation; competition: unlabeled P peptide varied against 200 nM F11 on 10 µM N-RNA; Tris pH 8 without salt; Hill equation; Ki from the IC50-to-Ki server. In general terms: Fluorescence polarisation rises when a labelled molecule tumbles more slowly, as on binding a larger partner.

Experiment [3] shares this target. The experiment in a line: fluorescence polarisation; 200 nM dicyano BODIPY FL-labelled BCNn peptide, N-RNA varied; 20 mM Tris pH 8.0 with 100 mM NaCl, 0.01% Brij-35; 20 °C; single site model.
Experiment [4] shares this target. In words: fluorescence polarisation; 200 nM dicyano BODIPY FL-labelled BCNn peptide, N-RNA varied; 20 mM Tris pH 8.0 without salt, 0.01% Brij-35; 20 °C; single site model.

Ends that are not written are not given here. * marks the point of attachment. dicyano BODIPY FL = CC1=CC(C)=[N+]2C1=Cc1ccc(CCC(=O)*)n1[B-]2(C#N)C#N; FITC = O=C1OC2(c3ccc(O)cc3Oc3cc(O)ccc32)c2ccc(NC(=S)*)cc21

B1: F_(11EE) (FTU-labelled RSV P 11-mer, Ser232Glu/Ser237Glu) (peptide)
peptide: {FITC}-DEDNDLELEDF
notes: C-terminal 11 residues of RSV phosphoprotein P with phosphomimetic glutamates at 232 and 237; source: synthetic peptide (Fmoc/tBu solid phase), FITC coupled in solution, HPLC purified
The Kd is the equilibrium constant for the complex coming apart. On to B1, for which, in experiment [1], the Kd came out at 0.38 ± 0.12 µM.

B2: P11 (unlabeled RSV P C-terminal 11-mer) (peptide)
peptide: DSDNDLSLEDF
notes: unlabeled peptide from which F11 was made; C-terminal 11 residues of RSV phosphoprotein P; also called P_(11SS); source: bought: GeneCust (synthetic peptide, >95% purity)
By IC50 is commonly meant the concentration needed to halve the response being measured. A word on the Ki: it is the dissociation constant of the complex between target and ligand, obtained from inhibition or displacement. Consider B2, for which, in experiment [2], the IC50 was 86 ± 7 µM and the Ki stood at 34 µM.

B3: P_(11EE) (unlabeled RSV P 11-mer, Ser232Glu/Ser237Glu) (peptide)
peptide: DEDNDLELEDF
notes: unlabeled peptide from which F_(11EE) was made; C-terminal 11 residues of RSV phosphoprotein P; source: synthetic peptide (Fmoc/tBu solid phase, RP-HPLC purified)
As to B3, in experiment [2], the IC50 turned out to be 22 ± 4 µM and the Ki amounted to 6 µM.

B4: BCN_(11EE) (dicyano BODIPY FL-labelled RSV P 11-mer, Ser232Glu/Ser237Glu) (peptide)
peptide: {dicyano BODIPY FL}-DEDNDLELEDF
notes: C-terminal 11 residues of RSV phosphoprotein P with phosphomimetic glutamates at 232 and 237; source: synthetic peptide (Fmoc/tBu solid phase, dicyano BODIPY FL coupled on resin, RP-HPLC purified)
Take B4: the Kd in experiment [3] turned out to be 0.26 ± 0.04 µM; in experiment [4] it was 0.28 ± 0.07 µM.

B5: BCN9E (dicyano BODIPY FL-labelled RSV P 9-mer, Ser237Glu) (peptide)
peptide: {dicyano BODIPY FL}-DNDLELEDF
notes: C-terminal 9 residues of RSV phosphoprotein P with a phosphomimetic glutamate at 237; also called B9E; source: synthetic peptide (Fmoc/tBu solid phase, dicyano BODIPY FL coupled on resin, RP-HPLC purified)
Consider B5, for which the Kd in experiment [4] was found to be 0.96 ± 0.13 µM.

B6: BCN_(11SE) (dicyano BODIPY FL-labelled RSV P 11-mer, Ser237Glu) (peptide)
peptide: {dicyano BODIPY FL}-DSDNDLELEDF
notes: C-terminal 11 residues of RSV phosphoprotein P with a phosphomimetic glutamate at 237; source: synthetic peptide (Fmoc/tBu solid phase, dicyano BODIPY FL coupled on resin, RP-HPLC purified)
As to B6, the Kd in experiment [3] turned out to be 0.55 ± 0.07 µM; in experiment [4], 0.82 ± 0.22 µM.

B7: F5E (FTU-labelled RSV P 5-mer, Ser237Glu) (peptide)
peptide: {FITC}-ELEDF
notes: C-terminal 5 residues of RSV phosphoprotein P with a phosphomimetic glutamate at 237; source: synthetic peptide (Fmoc/tBu solid phase), FITC coupled in solution, HPLC purified
Take B7: the Kd in experiment [1] was found to be 5.9 ± 0.5 µM.

B8: P9E (unlabeled RSV P 9-mer, Ser237Glu) (peptide)
peptide: DNDLELEDF
notes: unlabeled peptide from which F9E was made; C-terminal 9 residues of RSV phosphoprotein P; source: synthetic peptide (Fmoc/tBu solid phase, RP-HPLC purified)
Take B8: in experiment [2], the half-maximal inhibitory concentration (IC50) came out at 66 ± 6 µM and the Ki is 25 µM.

The values are drawn from paper PMC9820559, “Investigation of the Fuzzy Complex between RSV Nucleoprotein and Phosphoprotein to Optimize an Inhibition Assay by Fluorescence Polarization” (International Journal of Molecular Sciences, 2022).
